Measured values: publication doi:10.1101/2020.06.24.163345

Molecular target: SisCmr7-β (Cmr7 subunit of the S. islandicus Cmr-β complex), dimer (S. islandicus (REY15A))
Test: cryo-EM structure

**Q.** Which stoichiometry N does the source give for “SisCmr7-β (Cmr7 subunit of the S. islandicus Cmr-β complex), dimer (natural protein)” here?
**A.** 2
